Measured values reported in paper PMC11558822, “Myc 9aaTAD activation domain binds to mediator of transcription with superior high affinity” (Molecular Medicine, 2024).

Tested on: lacZ reporter driven by the lexA operator
Assay: One hybrid transactivation (β-galactosidase reporter) assay with LexA hybrids in yeast strain L40
Format: cell-based, Saccharomyces cerevisiae
Details: for ß-Gal: raw β-galactosidase activity; for Reporter activation (average value in %): β-galactosidase activity of LexA hybrid, % of positive control p53 construct 6p53 set to 100%, mean ± SD, n = 3; for normalized value in %: β-galactosidase, % of 6p53 mean
[1] = replicate 1 (first sample of the construct)
[2] = replicate 2 (second sample of the construct)
[3] = replicate 3 (third sample of the construct)

B1: c-Myc region 1-103: LexA hybrid construct of c-Myc N-terminal region 1–103 without 9aaTAD (protein, UniProt P01106 1-103, looked up, fragment)
chain: MDFFRVVENQQPPATMPLNVSFTNRNYDLDYDSVQPYFYCDEEENFYQQQQQSELQPPAPSEDIWKKFELLPTPPLSPSRRSGLCSPSYVAVTPFSLRGDNDG
modifications: LexA fusion
notes: LexA hybrid construct of c-Myc N-terminal region 1–103 without 9aaTAD
[1]
  ß-Gal: 25
  normalized value in %: 9%
[2]
  ß-Gal: 24
  normalized value in %: 9%
[3]
  ß-Gal: 27
  normalized value in %: 10%
  Reporter activation (average value in %): 9%

B2: c-Myc region 1-108: LexA hybrid construct of c-Myc N-terminal region 1–108 with 9aaTAD (protein, UniProt P01106 1-108, looked up, fragment)
chain: MDFFRVVENQQPPATMPLNVSFTNRNYDLDYDSVQPYFYCDEEENFYQQQQQSELQPPAPSEDIWKKFELLPTPPLSPSRRSGLCSPSYVAVTPFSLRGDNDGGGGSF
modifications: LexA fusion
notes: LexA hybrid construct of c-Myc N-terminal region 1–108 with 9aaTAD
One hybrid assay, presence versus absence of 9aaTAD (region 100–108) in the construct
  activation function (times): 5 times
[1]
  ß-Gal: 136
  normalized value in %: 50%
[2]
  ß-Gal: 123
  normalized value in %: 45%
[3]
  ß-Gal: 139
  normalized value in %: 51%
  Reporter activation (average value in %): 49%
